The values below are quoted from earlier work in article PMC4788383.

Read-outs that look alike come from different tables or passages of the source.

By Kd is commonly meant the free concentration of one partner at which half of the binding sites on the other are occupied at equilibrium, for simple one-to-one binding.

Data set [1] addresses RNA polymerase II CTD peptide CTD (Homo sapiens) (UniProt P24928).
Data set [2] shares this target. The source holds these as a separate data set.

Pin1 (from UniProt Q13526): the Kd in data set [1] is 30 µM; in data set [2] it was 61 µM.
